Laboratory results as given in patent publication US20140017701A1, “CHIMERIC PDK1 KINASES” (priority 2011, published 2014).
“Also recorded” adds a separate entry of the source.

Legend:
[1] = system: PDK1; experiment: Protein kinase activity assay, PDK1; type: biochemical, human; details: PDK1 wt / PDK1 50-359
Description: For the expression and purification of protein kinases fused to GST, pEBG-2T derived plasmids were transfected into 8×14.5 cm dishes containing HEK293 cells using the PEI method ([…] and […]/14.5 cm dish). The cells were lysed after 48 h in a buffer containing 50 mM Tris-HCl pH 7.5, 1 mM EGTA, 1 mM EDTA, 1% (w/v) Triton X-100, 1 mM sodium orthovanadate, […], 5 mM sodium pyrophosphate, 0.27 M sucrose, 0.1% β-mercaptoethanol, and 1 tablet of protease inhibitor cocktail per 50 ml of buffer. Lysates were frozen in liquid nitrogen and kept at −80° C. until required. Purification involved incubation of the cleared lysate with glutathione sepharose, followed by 2 washes with 0.5 M NaCl in lysis buffer, 8 washes with a buffer containing 50 mM Tris-HCl, 0.1 mM EGTA and 0.1% β-mercaptoethanol (buffer A), and a last wash with buffer A supplemented with 0.26 M sucrose. Elution was performed with this last buffer containing 20 mM glutathione and the GST-fusion protein was cleared from resin by filtration through a “SigmaPrep” spin column (Sigma). GST-fusion proteins were aliquoted, snap frozen in liquid nitrogen and kept at −80° C. until use. Purity at this stage was above 85% as estimated by SDS-PAGE and staining with Coomassie Brilliant Blue R250. PRK2 was expressed from pEBG-2T-PRK2 (Balendran, A. et al. J Biol Chem 275, 20806-13. (2000)), SGK1 from pEBG-2T-SGK1-ΔN[Ser422Asp], PKBα from pEBG-2T-PKBα[Ser473Asp] (Biondi et al., D. R. Embo J 20, 4380-90. (2001)), PKCl from pEBG-2T-PKCl and PKCζ from pEBG-2T-PKCζ. PDK1 and S6K1 were expressed in Sf9 insect cells using a baculovirus expression system from pFastBac-PDK1 and pFastBac-56K1-T2[Thr412Glu].
The protein kinase activity assays were performed essentially as previously described (Engel, M. et al. Embo J 25, 5469-80 (2006)). The assays were done in a 96-well format and 4 μl aliquots spotted on P81 phospho-cellulose papers (Whatman) using epMotion 5070 (Eppendorf), washed in 0.01% phosphoric acid, dried, and then exposed and analyzed using PhosphoImager technology (FLA-9000 Starion, Fujifilm). Atypical PKC (aPKC) activity assays were performed in a total volume of 20 μl containing 50 mM Tris-HCl pH 7.5, 0.05 mg/ml BSA, 0.1% (v/v) 2-mercaptoethanol, 10 mM MgCl2, 100 μM [γ^32P]ATP (5-50 cpm/pmol), 0.003% Brij, 30-50 ng of aPKC, and MBP (10 μM) or PSRtide (100 μM) as the substrate. After 15 min pre-incubation, the kinase reaction was started by addition of 6 μl of an ATP-Mg mix. When required, lipid activator (LA) phosphatidylserine (100 ng) or PKC lipid activator mix (1×) was included in the pre-incubation. Low basal activity and consistent activation of 1-592 PKCζ and 498 PKCζ by LA was obtained when the pre-incubation time was started by addition of the whole mix on the enzyme.
The substrates were T308tide (200 μM) for PDK1, Kemptide (100 μM) for PKA, and Crosstide (100 μM) for SGK, PKB, S6K, and PRK2. The activity assays for PKCα, β, θ, and δ were performed in the presence of PKC lipid activator mix (1×) using 3 μM of histone H1 as substrate.
The activity assays were performed in duplicates or triplicates (in the case of the temperature stability assay) with less than 10% difference between the duplicate pairs. The activity assays shown were repeated at least twice with similar results. Moreover, most of the assays shown were repeated multiple times with enzymes from independent purifications with similar results. Representative experiments are shown. […]

[2] = target: T1, GST-PSR-C1 (PKCl 100-185) / His-PKCl Δ223 interaction (Homo sapiens, UniProt P41743); experiment: AlphaScreen interaction assay GST-PSR-C1 / His-PKCι Δ223; type: binding
T1 sequence (P41743 233-596): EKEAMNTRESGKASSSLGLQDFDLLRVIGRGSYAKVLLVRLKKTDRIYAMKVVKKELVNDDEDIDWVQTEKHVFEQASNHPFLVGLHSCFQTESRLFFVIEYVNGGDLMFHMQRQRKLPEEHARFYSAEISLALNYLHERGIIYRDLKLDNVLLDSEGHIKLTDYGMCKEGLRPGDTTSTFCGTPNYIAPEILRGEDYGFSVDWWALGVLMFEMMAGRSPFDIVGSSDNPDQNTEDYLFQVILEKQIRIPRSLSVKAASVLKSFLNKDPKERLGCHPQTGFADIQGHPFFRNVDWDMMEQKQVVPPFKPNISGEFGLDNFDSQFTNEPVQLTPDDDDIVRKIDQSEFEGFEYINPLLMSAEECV
Source text: In FIG. 11 evidence is provided that the C1 domain directly interacts with the catalytic domain of PKCz. A novel assay is set-up to investigate the interaction between the C1 domain constructs fused to GST and the catalytic domain of atypical PKCs containing a 6×His-tag. The assay is based on the alphascreen technology using a donor bead coupled to anti-GST antibodies (to bind the GST-PSR-C1 or GST-C1 constructs derived from PKCl) and Ni-NTA acceptor beads that bind to His-PKCl Δ223 (catalytic domain). The interaction is measured by the emission of light from the acceptor beads that happens when the two beads are in close proximity. GST-PSR-C1 readily interacted with His-PKCl Δ223. […] PIFtide and HM polypeptides are known to interact with the PIF-pocket of AGC kinases. Thus, the assay provides evidence that polypeptides binding to the PIF-pocket displace the interaction. […]
(§1) The AlphaScreen assay was performed according to the manufacturer's general protocol (Perkin Elmer). […] Proteins and beads were incubated in the dark for 1 h 30 min at room temperature and the emission of light from the acceptor beads was measured in the EnVision reader (Perkin Elmer) and analyzed using the EnVision manager software.

[3] = target: T2, GST-C1 (PKCl 131-186) / His-PKCl Δ223 interaction (Homo sapiens, UniProt P41743); experiment: AlphaScreen interaction assay GST-C1 / His-PKCι Δ223; type: binding
T2 sequence (P41743 233-596): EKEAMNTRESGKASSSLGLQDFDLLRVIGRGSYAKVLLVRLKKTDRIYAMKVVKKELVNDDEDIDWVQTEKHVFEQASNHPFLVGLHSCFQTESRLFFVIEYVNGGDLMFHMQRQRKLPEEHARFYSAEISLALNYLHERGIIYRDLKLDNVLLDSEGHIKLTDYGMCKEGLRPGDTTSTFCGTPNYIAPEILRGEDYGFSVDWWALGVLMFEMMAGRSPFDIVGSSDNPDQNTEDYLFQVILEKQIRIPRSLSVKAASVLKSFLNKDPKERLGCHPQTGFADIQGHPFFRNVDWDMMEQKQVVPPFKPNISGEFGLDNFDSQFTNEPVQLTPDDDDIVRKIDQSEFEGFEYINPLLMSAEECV
Source text: In FIG. 11 evidence is provided that the C1 domain directly interacts with the catalytic domain of PKCz. A novel assay is set-up to investigate the interaction between the C1 domain constructs fused to GST and the catalytic domain of atypical PKCs containing a 6×His-tag. The assay is based on the alphascreen technology using a donor bead coupled to anti-GST antibodies (to bind the GST-PSR-C1 or GST-C1 constructs derived from PKCl) and Ni-NTA acceptor beads that bind to His-PKCl Δ223 (catalytic domain). The interaction is measured by the emission of light from the acceptor beads that happens when the two beads are in close proximity. GST-PSR-C1 readily interacted with His-PKCl Δ223. […] PIFtide and HM polypeptides are known to interact with the PIF-pocket of AGC kinases. Thus, the assay provides evidence that polypeptides binding to the PIF-pocket displace the interaction. In addition, small compounds that inhibit both atypical PKC isoforms and have been co-crystallized with PDK1-PKCz chimera (e.g. PS315), also displace the interaction between the C1 domain and the catalytic domain. Together, the data highlight the important role of the PIF-pocket in the regulation of PKCs and the need to develop tools to improve the methods for drug development to the PIF-pocket on AGC kinases. […] Indeed modeling of the pseudosubstrate into the substrate-binding site, allows the interaction of the C1 domain with the external part of the helix α-C that is a main component of the PIF-pocket (FIG. 13). The invention further provides a method for the screening for compounds that interact with the PIF-pocket on PKC isoforms, PDK1 chimeras or other AGC kinases, as well as kits for said method and compounds identified by said method (aspects (10) to (12) of the invention).
as §1

[4] = target: T3, PSRtide (biotin-KSIYRRGSRRWRKLYRA)
T3 chain: KSIYRRGSRRWRKLYRA

| Molecule | Effect on PDK1 activity [1] | Effect on interaction of GST-PSR-C1 with His-PKCι Δ223 [2] | Effect on interaction of GST-C1 with His-PKCι Δ223 [3] | specific activity (phosphorylation of PSRtide by full length PKCζ) [4] [nmol/mg/min] |
| --- | --- | --- | --- | --- |
| O=C(O)CC(Cc1nc2cc(Cl)ccc2[nH]1)c1ccc(Cl)cc1 (stereo not shown) [PS114] | Activation |  |  |  |
| VGNQLPFIGFT(P)YFRENL (VGNQLPFIGFTYFRENL) [ROCK-pHM, ROCK HM peptide phosphorylated at the HM phosphorylation site] |  | not and not able to displace | not and not able to displace |  |
| RTWALCGTPEYLAPEIILKK (activation loop of PKA) |  |  | not |  |
| VGNQLPFIGFTYFRENL (ROCK-HM) |  | displaced; also recorded: strongly diminished | displaced; also recorded: strongly diminished |  |
| GST-PKCζ wild type (1-592) (protein) MPSRTGPKMEGSGGRVRLKAHYGGDIFITSVDAATTFEELCEEVRDMCRLHQQHPLTLKWVDSEGDPCTVSSQMELEEAFRLARQCRDEGLIIHVFPSTPEQPGLPCPGEDKSIYRRGARRWRKLYRANGHLFQAKRFNRRAYCGQCSERIWGLARQGYRCINCKLLVHKRCHGLVPLTCRKHMDSVMPSQEPPVDDKNEDADLPSEETDGIAYISSSRKHDSIKDDSEDLKPVIDGMDGIKISQGLGLQDFDLIRVIGRGSYAKVLLVRLKKNDQIYAMKVVKKELVHDDEDIDWVQTEKHVFEQASSNPFLVGLHSCFQTTSRLFLVIEYVNGGDLMFHMQRQRKLPEEHARFYAAEICIALNFLHERGIIYRDLKLDNVLLDADGHIKLTDYGMCKEGLGPGDTTSTFCGTPNYIAPEILRGEEYGFSVDWWALGVLMFEMMAGRSPFDIITDNPDMNTEDYLFQVILEKPIRIPRFLSVKASHVLKGFLNKDPKERLGCRPQTGFSDIKSHAFFRSIDWDLLEKKQALPPFQPQITDDYGLDNFDTQFTSEPVQLTPDDEDAIKRIDQSEFEGFEYINPLLLSTEESV |  |  |  | 60 to 80 |
